The source of these data is article PMC8902505, “A Continuous Assay Set to Screen and Characterize Novel Protein N-Acetyltransferases Unveils Rice General Control Non-repressible 5-Related N-Acetyltransferase2 Activity” (Frontiers in Plant Science, 2022).

One data set deals with T1, OsGNAT2 (Oryza sativa, UniProt Q5KQI6).
T1 construct: gene SNAT1
Briefly: PDH-coupled continuous assay (NADH, […] nm). Particulars: upper bound inferred from no gain between 100 and 500 μM Ac-CoA; peptide substrate; pH 8.0; 30 °C. Format: biochemical.

Data set [1] addresses Schizosaccharomyces pombe NatA (SpNaa15 full length + SpNaa10 full length heterodimer) (Schizosaccharomyces pombe).
Data set [2] has the same target. The source holds these as a separate data set.
Substrate in the data set “purified protein”: CC(=O)SCCNC(=O)CCNC(=O)[C@H](O)C(C)(C)COP(=O)(O)OP(=O)(O)OC[C@H]1O[C@@H](n2cnc3c(N)ncnc32)[C@H](O)[C@@H]1OP(=O)(O)O
Briefly: purified protein. The settings on record: extrapolated to saturating reference peptide …, 12.5-500 μM Ac-CoA, pH 8.0, 30 °C.

T1 sequence (Q5KQI6 89-254): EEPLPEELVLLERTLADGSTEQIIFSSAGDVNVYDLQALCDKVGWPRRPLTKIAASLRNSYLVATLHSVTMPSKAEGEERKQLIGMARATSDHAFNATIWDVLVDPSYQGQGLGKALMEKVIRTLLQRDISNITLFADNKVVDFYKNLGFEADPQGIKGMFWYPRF

For the molecule `CC(=O)SCCNC(=O)CCNC(=O)[C@H](O)C(C)(C)COP(=O)(O)OP(=O)(O)OC[C@H]1O[C@@H](n2cnc3c(N)ncnc32)[C@H](O)[C@@H]1OP(=O)(O)O` [Ac-CoA], the Km at OsGNAT2 was less than 30 µM.

B1: peptide SASEAGVR (peptide)
peptide: SASEAGVR
Turning to B1, in data set [1], the Km of the peptide substrate, PDH-coupled acetylation assay, 100 μM Ac-CoA, 30°C was 14.8 mM. For the same molecule, the Km of the peptide substrate, PDH-coupled acetylation assay, 100 μM Ac-CoA, 30°C (value as told in the text) in data set [2] amounted to 12 mM.

B2: peptide SASEAGV (peptide)
peptide: SASEAGV
For the molecule B2, in data set [1], the Km of the peptide substrate, PDH-coupled acetylation assay, 100 μM Ac-CoA, 30°C came to 25.5 mM. The Km of the peptide substrate, PDH-coupled acetylation assay, 100 μM Ac-CoA, 30°C (value as told in the text) in data set [2] came to 19 mM.

B3: SpNatA (Schizosaccharomyces pombe 972h-) (protein)
chain: MDIRPARISDLTGMQNCNLHNLPENYQLKYYLYHAISWPMLSYVATDPKGRVVGYVLAKMEEEPKDGIPHGHITSVSVMRSYRHLGLAKRLMVQSQRAMVEVYGAKYMSLHVRKSNRAAIHLYRDTLQFDVQGIESKYYADGEDAYAMHKDFSTLKFDTPETNDELAKTVQSLALNN
For B3, in the data set “purified protein”, the Km was 0.020 ± 0.003 mM, the kcat was 10 s⁻¹ and the kcat/Km was 508000 ± 89900 M⁻¹ s⁻¹.

B4: reference peptide … (canonical NatA substrate) (peptide)
peptide: SASEAGVRWGRPVGRRRRP
B4: the Km of the peptide substrate, PDH-coupled acetylation assay, 100 μM Ac-CoA, 30°C in data set [1] is 1 mM.

B5: natural 19-amino acid N-terminal sequence of yeast Ths1p, … (peptide)
peptide: SASEAGVAEQVKKLSVNDS
For B5, in data set [1], the Km of the peptide substrate, PDH-coupled acetylation assay, 100 μM Ac-CoA, 30°C is 2.3 mM.
